# Source: article PMC4856479 (Nature, 2016)
# Key:
# [1] = biological target: mono-ubiquitin (untagged, native N- and C-termini) (UniProt P0CG48 1-76); experiment: crystal structure
# linear di-ubiquitin = linear di-ubiquitin (UniProt P0CG48 1-76; P0CG48 1-76); experiment: ITC
binder,measurement,setting,value
"HOIP-RBR (residues 696–1072) (domain or fragment, human, UniProt Q96EP0 696-1072, looked up) AQECAVCGWALPHNRMQALTSCECTICPDCFRQHFTIALKEKHITDMVCPACGRPDLTDDTQLLSYFSTLDIQLRESLEPDAYALFHKKLTEGVLMRDPKFLWCAQCSFGFIYEREQLEATCPQCHQTFCVRCKRQWEEQHRGRSCEDFQNWKRMNDPEYQAQGLAMYLQENGIDCPKCKFSYALARGGCMHFHCTQCRHQFCSGCYNAFYAKNKCPEPNCRVKKSLHGHHPRDCLFYLRDWTALRLQKLLQDNNVMFNTEPPAGARAVPGGGCRVIEQKEVPNGLRDEACGKETPAGYAGLCQAHYKEYLVSLINAHSLDPATLYEVEELETATERYLHVRPQPLAGEDPPAYQARLLQKLTEEVPLGQSIPRRRK",binding result,[1],binds
same,binding result,linear di-ubiquitin,binds
